Reference: patent US20220291238A1, “Methods for Predicting Treatment Response in Ulcerative Colitis” (Janssen Biotech, Inc., priority 2021, published 2022)

B1: IL22: human recombinant IL22 (10 ng/mL) on human colonoids; mouse recombinant IL22 on mouse colonoids (protein, UniProt Q9GZX6 34-179, looked up)
Interleukin-22: APISSHCRLDKSNFQQPYITNRTFMLAKEASLADNNTDVRLIGEKLFHGVSMSERCYLMKQVLNFTLEEVLFPQSDRFQPYMQEVVPFLARLSNRLSTCHIEGDDLHIQRNVQKLKDTVKKLGESGEIKAIGELDLLFMSLRNACI

Tests used:
TRUC mice = assay: TRUC mouse chronic colitis model, in vivo treatments; details: TRUC Il22−/− mice
Experimental: In vivo treatments: Neutralizing anti-IL-22 mAb (clone IL22-01) and recombinant IL-22 (rIL-22) were developed and provided by Pfizer. […] of IL22-01 (per mouse) were administered i.p. every 3 to 4 days. […] of rIL-22 (per mouse) were administered i.p. at days 0, 4, 8 and 12, while mice were culled at day 14. Anti-CXCR2 (clone 242216, R&D Systems) was administered i.p. at a dose of […] per mouse at days 0, 3, 7, 10 and 14, while mice were culled at day 15.
Isolation of colonic LP leukocytes (cLPMCs): Mice were euthanized by either cervical dislocation or by a rising concentration of carbon dioxide gas, and then dissected in a laminar flow cabinet under aseptic conditions. Colons were opened longitudinally, cleaned thoroughly with ice-cold PBS and cut into 1-2 mm pieces and washed with 10 ml 5 mM EDTA, 1 mM Hepes in HBSS (Gibco; Gaithersburg, Md.) in a shaking water bath (300 rpm) at 37° C. for 20 min. Tissue was then vortexed vigorously for 10 seconds and passed through a […] cell strainer and collected in Ctubes (Miltenyi; Bergisch Gladbach, Germany) in complete RPMI (Gibco) containing 10% fetal calf serum, 0.25 mg/ml Collagenase D (Roche; Basel, Switzerland), 1.5 mg/ml Dispase II (Roche) and […] DNase (Roche) and put in a shaking water bath (300 rpm) at 37° C. for 40 minutes. Before and after the 40 minute incubation C-tubes were vigorously shaken for 30 seconds. Solutions were then passed through […] cell strainers and washed with ice-cold PBS. […] Cells were resuspended in 1 ml PBS, counted, and immediately used for further experiments.
Gene expression analysis: Whole tissue colonic fragments or sorted cells were lysed in 1 ml TRIsure (Bioline) and stored at −80° C. pending further processing. […] Concentration of RNA in each sample was measured using NanoDrop. […] Quantitative PCR was performed using QuantiTect primers (Qiagen) and Quantitect SybrGreen MasterMix (Qiagen) on a LightCycler 480 (Roche). Samples were analyzed in triplicates and relative expression of mRNAs was determined after normalization against the housekeeping gene Beta-2-Microglobulin (B2M). […]

mouse colonic organoids = assay: IL22 treatment of mouse colonic organoids, chemokine expression; format: cell-based
Experimental: Mouse colonoids were cultured in the same medium as above but without gastrin SB202190, Nicotinamide, A83-01 and with the addition of 3 μM CHIR99021 (Cambridge Biosciences; Cambridge, United Kingdom). To differentiate them, Wnt3a was withdrawn for 3 days. During the last 24 hours in differentiation medium, mouse colonoids were treated with mouse recombinant IL22 (10 ng/mL) and IL17A (50 ng/mL).
Next, whether IL22 mediated regulation of neutrophil-active chemokine expression was functionally important in colitis was investigated. First, it was evaluated whether IL22 mediated regulation of human colonic epithelial function was conserved across species. […] In the CC family of chemokines, induction of Ccl7 and weaker induction of Ccl2 by IL22, with little or no impact on other CC family members, was observed. These findings were validated using real time PCR, which confirmed time and dose dependent induction of CXC-family chemokine transcripts. As observed in human colonoids, IL22 induced expression of Cxcl1 and Cxcl5, and was synergistically augmented by IL17A. These observations were confirmed at the protein level by measuring chemokine production in supernatants of murine colonic organoids cultured with recombinant mouse cytokines.

human colonoids = assay: Cytokine treatment of human colonoids, RNA-seq; format: cell-based
Experimental: All patients provided informed consent (NRES/IRAS id:15/LO/1998). Subsequent establishment of human colonoids was performed as previously described by Sato et al (48). The crypts were cultured in growth medium containing advanced Dulbecco's modified Eagle's medium/F12, penicillin/streptomycin (100 units/mL), 10 mM HEPES, 2 mM Glutamax, supplements N2 (1×) and B27 (1×), 50 ng/mL mouse epidermal growth factor (all from Life Technologies; Carlsbad, Calif.), 1 mM N-acetylcysteine (Sigma-Aldrich; St. Louis, Mo.), 50% v/v Wnt3a conditioned medium, 10% v/v R-spondin-1 conditioned medium, 100 ng/mL murine recombinant noggin protein (Peprotech; Rocky Hill, N.J.), 10 nM gastrin (Sigma-Aldrich), 500 nM A83-01 (Bio-techne; Minneapolis, Minn.), 10 μM SB202190 (Sigma-Aldrich) and 10 mM Nicotinamide (Sigma-Aldrich). 10 μM Y-27632 (Sigma-Aldrich) was added to the culture medium for the initial 3 days. Medium was changed every 2 days. […] During the last 24 hours in differentiation medium, human colonoids were treated with human recombinant IL22 (10 ng/mL), IL17A (50 ng/mL), TNFα (10 ng/mL), IFNγ (20 ng/mL), IL13 (10 ng/mL) and IL22 (10 ng/mL)/IL17A (50 ng/mL) combination.
RNA extraction: Colonoids and LPMC were treated in a similar fashion. Cells were lysed and RNA was extracted using the RNAeasy kit (Qiagen; Hilden, Germany). This step was optimized balancing the effectiveness of elimination of DNA quantified (Qubit dsDNA HS assay kit) versus the loss of quantity of RNA (Qubit RNA BR assay kit). Optimal DNAse I concentration was determined to be ×5 the standard concentration. 500 ng of cDNA was then created using Revertaid cDNA synthesis kit (ThermoFisher) and diluted to a concentration of 6.25 ng/μl. Harvested colonoids were put in Qiazol and then RNA was extracted with the RNAeasy kit (Qiagen) as per manufacturer's guidelines. cDNA was created using the Revertaid cDNA synthesis kit (ThermoFisher).
Library preparation and sequencing: A total amount of 3 μg RNA per sample was used as input material for the RNA sample preparations. Sequencing libraries were generated using NEBNextR Ultra™ RNA Library Prep Kit for IlluminaR (NEB, Ipswich, Mass.) following manufacturer's recommendations and index codes were added to attribute sequences to each sample. Briefly, mRNA was purified from total RNA using poly-T oligo-attached magnetic beads. Fragmentation was carried out using divalent cations under elevated temperature in NEBNext First Strand Synthesis Reaction Buffer (5×). First strand cDNA was synthesized using random hexamer primer and M-MuLV Reverse Transcriptase (RNase H-). Second strand cDNA synthesis was subsequently performed using DNA Polymerase I and RNase H. Remaining overhangs were converted into blunt ends via exonuclease/polymerase activities. After adenylation of 3′ ends of DNA fragments, NEBNext Adaptor with hairpin loop structure were ligated to prepare for hybridization. In order to select cDNA fragments of preferentially 150˜200 bp in length, the library fragments were purified with AMPure XP system (Beckman Coulter, Brea, Calif.). Then 3 μl USER Enzyme (NEB) was used with size-selected, adaptor-ligated cDNA at 37° C. for 15 minutes followed by 5 minutes at 95° C. before PCR. Then PCR was performed with Phusion High-Fidelity DNA polymerase, Universal PCR primers and Index (X) Primer. At last, PCR products were purified (AMPure XP system) and library quality was assessed on the Agilent Bioanalyzer 2100 system. The clustering of the index-coded samples was performed on a cBot Cluster Generation System using HiSeq PE Cluster Kit cBot-HS (Illumina; San Diego, Calif.) according to the manufacturer's instructions. After cluster generation, the paired-end libraries were sequenced on an Illumina HiSeq platform. […]

| Molecule | Cxcl1 and Cxcl5 expression in the colon (TRUC mice) | disease activity (colitis) (TRUC mice) | neutrophil recruitment in the colon (TRUC mice) | regulation of chemokine expression (mouse colonic organoids) | downregulated transcripts (human colonoids; FDR<0.01) | upregulated transcripts (human colonoids; FDR<0.01) | differentially expressed transcripts (human colonoids; IL22 10 ng/mL, 24 hours, FDR<0.01) [transcripts] | regulation of chemokine expression (human colonoids; human colonoids, 24 hours) | transcripts uniquely regulated by IL22 (human colonoids; of the 1251 IL22-regulated transcripts) |
| --- | --- | --- | --- | --- | --- | --- | --- | --- | --- |
| rIL22: recombinant IL-22 developed and provided by Pfizer, given i.p. to mice | reinstated | restored colitis | restored excessive neutrophil recruitment | – | – | – | – | – | – |
| B1 | – | – | – | selectively induced expression of the neutrophil-active chemokines Cxcl1, Cxcl3 and Cxcl5 | 672 | 579 | 1251 | preferentially upregulated the neutrophil-active CXC family chemokines CXCL1, CXCL2, CXCL3, CXCL4, CXCL5, CXCL6 and CXCL8 | 322 |
